# Measurements taken from paper PMC8458290 (Nature Communications, 2021).
# B1: nanobody F2 (monovalent VHH, pOPINO construct) (VHH)
# VHH: QVQLVESGGGLVQAGGSLRLACIASGRTFHSYVMAWFRQAPGKEREFVAAISWSSTPTYYGESVKGRFTISRDNAKNTVYLQMNRLKPEDTAVYFCAADRGESYYYTRPTEYEFWGQGTQVTVSS
# B2: nanobody C1 (monovalent VHH, pOPINO construct) (VHH)
# VHH: QVQLVESGGGLVQPGGSLRLSCAASGFTNDFYSIAWFRQAPGKEREGVSWLSVSDNTPTYVDSVKDRFTISRHNANNTVYLQMNMLKPEDTAIYYCAAGRFAGRDTWPSSYDYWGQGTQVTVSS
# Molecular target: SARS-CoV-2 receptor-binding domain (amino acids 330-532), Victoria strain, biotinylated (SARS-CoV-2, Wuhan/Victoria (B), UniProt P0DTC2, biotinylated (site not stated))
# Experiment: SPR
# Conditions: both partners purified
Binder,Kd,T1/2
B1,40 pM,
B2,615 pM,20 min
